In US7250505:
One block for each substance: values may come before it.

What was measured:
[1] = target: GST-mDab1 PTB domain fusion protein (mouse); assay: fluorescence polarization competition against the fluorescein-labeled APP peptide, 1.1 µM PTB domain
[2] = target: APP peptide with isoleucine in place of Pro-2; assay: substitution scan on a cellulose peptide array, radiolabeled GST-PTB
[3] = target: APP peptide with arginine in place of Pro-2; assay: as above
[4] = target: APP peptide with lysine in place of Pro-2; assay: as above
[5] = target: fluorescein-labeled APP peptide (Mus musculus (Mouse)) (UniProt P12023); assay: fluorescence polarization, about 1 nM fluorescein-labeled APP peptide titrated with GST-PTB
[6] = target: APP synthetic peptide containing the NPXY region (non-phosphorylated) (Mus musculus (Mouse)) (UniProt P12023); assay: fluorescence polarization
[7] = target: activated Src (Src527F) (UniProt P00523); assay: co-immunoprecipitation with anti-Src from Rat-1 fibroblasts overexpressing both, immunoblot
[8] = target: GST-mDab1 PTB domain fusion protein (mouse); assay: fluorescence polarization competition

competitor concentration of equal effect [1]: 2 µM
Substance: APP synthetic peptide containing the NPXY region (non-phosphorylated) (from UniProt P12023 754-770)

percent binding against the wild-type APP peptide [2]: 40%
percent binding against the wild-type APP peptide [3]: 40%
percent binding against the wild-type APP peptide [4]: 40%
Kd [5]: 550 nM
Kd [6]: 500 nM
Substance: GST-mDab1 PTB domain fusion protein (from UniProt O75553 29-197)

percent of the phosphorylated mDab1 of the total cell lysate immunoprecipitated with Src [7]: 1%
Substance: mDab1 p80 (mDab555 product), tyrosine phosphorylated (from UniProt P97318 1-588)

competitor concentration of equal effect [1]: 500 µM
fold reduction of affinity against the non-phosphorylated APP peptide [8]: 250 fold
Substance: phosphorylated APP peptide (from UniProt P12023 754-770)
